One assay has as its target T1, IKKβ (UniProt O88351 1-757).
T1 sequence (looked up): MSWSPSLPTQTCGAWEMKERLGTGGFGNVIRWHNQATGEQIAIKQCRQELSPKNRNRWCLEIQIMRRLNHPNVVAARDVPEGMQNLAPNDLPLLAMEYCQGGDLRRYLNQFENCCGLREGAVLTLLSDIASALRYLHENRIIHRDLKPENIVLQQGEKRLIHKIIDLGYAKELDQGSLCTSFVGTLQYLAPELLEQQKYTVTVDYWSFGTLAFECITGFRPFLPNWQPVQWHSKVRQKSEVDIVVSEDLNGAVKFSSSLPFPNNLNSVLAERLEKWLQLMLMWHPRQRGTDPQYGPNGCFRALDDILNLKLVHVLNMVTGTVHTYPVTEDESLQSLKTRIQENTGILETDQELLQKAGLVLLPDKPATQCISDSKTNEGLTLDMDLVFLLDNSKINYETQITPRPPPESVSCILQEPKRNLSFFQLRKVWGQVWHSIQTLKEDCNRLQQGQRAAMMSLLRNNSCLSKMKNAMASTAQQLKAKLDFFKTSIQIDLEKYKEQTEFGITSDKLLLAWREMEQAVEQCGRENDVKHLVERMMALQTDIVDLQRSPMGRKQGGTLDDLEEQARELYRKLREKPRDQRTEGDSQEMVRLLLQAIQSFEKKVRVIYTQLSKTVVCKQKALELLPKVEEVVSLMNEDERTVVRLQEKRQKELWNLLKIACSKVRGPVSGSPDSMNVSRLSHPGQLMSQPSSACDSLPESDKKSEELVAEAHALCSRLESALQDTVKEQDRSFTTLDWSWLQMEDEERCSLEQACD
Nature of the assay: MyD88 co-immunoprecipitation from LPS-stimulated iBMDMs, western blot (FIG. 74A). The text has this: (§1) Data represent mean±SEM of triplicate wells. […] Data represent mean±SEM of triplicate wells.
(Immunoblotting shows a protein as a band on a membrane.)

In another assay the target is NEMO (UniProt O88522 1-412). The description is as above.
Chain of NEMO (O88522 whole entry): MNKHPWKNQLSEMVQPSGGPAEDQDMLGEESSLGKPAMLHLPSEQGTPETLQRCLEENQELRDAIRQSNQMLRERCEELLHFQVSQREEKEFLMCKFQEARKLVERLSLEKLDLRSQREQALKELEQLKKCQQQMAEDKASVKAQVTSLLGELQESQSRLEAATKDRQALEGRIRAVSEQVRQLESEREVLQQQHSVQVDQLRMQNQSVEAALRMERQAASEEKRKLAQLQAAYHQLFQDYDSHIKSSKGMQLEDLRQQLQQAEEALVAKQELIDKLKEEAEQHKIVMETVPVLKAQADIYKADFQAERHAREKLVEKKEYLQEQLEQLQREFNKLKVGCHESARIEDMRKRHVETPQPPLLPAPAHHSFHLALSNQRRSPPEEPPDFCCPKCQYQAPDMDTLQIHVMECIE
Description: as §1

B1: MyD88 (other, UniProt P22366 1-296, looked up)
chain: MSAGDPRVGSGSLDSFMFSIPLVALNVGVRRRLSLFLNPRTPVAADWTLLAEEMGFEYLEIRELETRPDPTRSLLDAWQGRSGASVGRLLELLALLDREDILKELKSRIEEDCQKYLGKQQNQESEKPLQVARVESSVPQTKELGGITTLDDPLGQTPELFDAFICYCPNDIEFVQEMIRQLEQTDYRLKLCVSDRDVLPGTCVWSIASELIEKRCRRMVVVVSDDYLQSKECDFQTKFALSLSPGVQQKRLIPIKYKAMKKDFPSILRFITICDYTNPCTKSWFWTRLAKALSLP
notes: Adaptor protein and core of the myddosome; also called endogenous MyD88; myeloid differentiation primary response gene 88
On to B1, for which the binding result with IKKβ and in the assay with NEMO was “no binding” each time.

The record behind these values is US20200216506A1 (CHILDREN S MEDICAL CENTER, published 2020).
